# Target: T1, phytochrome B (Arabidopsis thaliana, UniProt P14713)
# T1 sequence (P14713 1-1172): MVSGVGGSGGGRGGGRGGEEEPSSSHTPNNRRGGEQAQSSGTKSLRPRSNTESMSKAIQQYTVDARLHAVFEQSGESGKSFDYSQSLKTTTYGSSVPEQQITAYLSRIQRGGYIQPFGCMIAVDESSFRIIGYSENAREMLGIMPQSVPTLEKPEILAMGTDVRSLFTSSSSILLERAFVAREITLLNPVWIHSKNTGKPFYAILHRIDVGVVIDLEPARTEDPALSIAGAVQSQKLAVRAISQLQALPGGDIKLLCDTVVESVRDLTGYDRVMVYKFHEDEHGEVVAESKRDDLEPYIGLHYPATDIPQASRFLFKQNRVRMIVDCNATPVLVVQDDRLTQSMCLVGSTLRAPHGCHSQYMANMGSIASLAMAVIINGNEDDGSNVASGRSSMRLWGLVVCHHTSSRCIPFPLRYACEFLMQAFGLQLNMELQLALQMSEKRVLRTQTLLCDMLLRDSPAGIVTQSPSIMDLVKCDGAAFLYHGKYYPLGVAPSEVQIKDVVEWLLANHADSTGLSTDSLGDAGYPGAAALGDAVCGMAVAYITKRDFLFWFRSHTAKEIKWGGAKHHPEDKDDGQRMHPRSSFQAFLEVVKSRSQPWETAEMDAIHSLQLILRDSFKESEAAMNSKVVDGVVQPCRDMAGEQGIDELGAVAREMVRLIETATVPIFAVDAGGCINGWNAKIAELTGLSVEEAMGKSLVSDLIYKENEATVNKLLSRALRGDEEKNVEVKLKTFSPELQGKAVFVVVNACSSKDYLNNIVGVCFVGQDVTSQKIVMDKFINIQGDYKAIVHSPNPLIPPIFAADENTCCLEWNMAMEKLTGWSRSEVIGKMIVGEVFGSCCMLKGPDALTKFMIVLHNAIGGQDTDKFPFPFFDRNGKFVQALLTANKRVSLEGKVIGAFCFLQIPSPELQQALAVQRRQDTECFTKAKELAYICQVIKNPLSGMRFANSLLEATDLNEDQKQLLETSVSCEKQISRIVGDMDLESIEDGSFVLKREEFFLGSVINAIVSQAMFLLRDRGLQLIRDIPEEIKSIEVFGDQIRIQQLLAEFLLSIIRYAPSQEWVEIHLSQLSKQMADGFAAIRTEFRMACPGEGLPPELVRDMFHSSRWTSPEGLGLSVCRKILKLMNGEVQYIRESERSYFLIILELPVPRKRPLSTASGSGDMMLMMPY
# T1 sequence (Q84XU2 1-484 isoform Q84XU2-2 partner): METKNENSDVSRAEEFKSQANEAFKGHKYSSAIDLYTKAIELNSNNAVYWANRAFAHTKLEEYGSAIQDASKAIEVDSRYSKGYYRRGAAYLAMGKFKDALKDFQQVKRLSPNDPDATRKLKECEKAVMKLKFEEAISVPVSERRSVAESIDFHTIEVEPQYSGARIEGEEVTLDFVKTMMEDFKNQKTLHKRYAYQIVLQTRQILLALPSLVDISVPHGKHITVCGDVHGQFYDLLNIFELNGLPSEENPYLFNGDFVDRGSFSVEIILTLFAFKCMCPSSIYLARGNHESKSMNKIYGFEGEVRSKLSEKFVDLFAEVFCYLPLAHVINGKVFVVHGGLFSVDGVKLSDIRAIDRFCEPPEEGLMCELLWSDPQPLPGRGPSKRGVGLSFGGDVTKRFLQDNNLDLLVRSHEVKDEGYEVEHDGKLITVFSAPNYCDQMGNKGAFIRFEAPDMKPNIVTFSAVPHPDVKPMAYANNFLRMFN
# Test: In vitro binding assay (GST pull-down of 35S-labeled TnT protein)
# Details: 1 μg GST-PAPP5 fusion protein, 4° C.
substance,measurement,value
"PAPP5: type 5 serine/threonine protein phosphatase of Arabidopsis thaliana interacting with phytochromes, SEQ ID NO: 4",binding to phytochrome B,has the property of binding
